Biological target: full length human TDP-43-turboGFP, in vitro translated (human, UniProt Q13148 1-414)
Experiment: cell-based or functional assay

Chain of full length human TDP-43-turboGFP, in vitro translated (Q13148 whole entry): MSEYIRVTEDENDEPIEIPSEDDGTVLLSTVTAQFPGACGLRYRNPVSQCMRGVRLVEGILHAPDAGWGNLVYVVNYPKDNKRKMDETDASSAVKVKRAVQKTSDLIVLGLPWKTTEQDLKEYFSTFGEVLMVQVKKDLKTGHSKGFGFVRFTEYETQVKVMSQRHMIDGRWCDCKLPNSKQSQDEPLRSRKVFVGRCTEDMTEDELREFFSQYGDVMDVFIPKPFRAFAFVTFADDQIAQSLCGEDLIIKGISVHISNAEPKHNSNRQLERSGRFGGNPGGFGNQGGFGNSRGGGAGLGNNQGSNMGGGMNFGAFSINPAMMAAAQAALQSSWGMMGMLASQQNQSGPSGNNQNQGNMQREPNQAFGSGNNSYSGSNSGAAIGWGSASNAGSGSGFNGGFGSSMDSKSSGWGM

B1: clusterin (CLU) purified from human plasma (natural protein)
chain 1: DQTVSDNELQEMSNQGSKYVNKEIQNAVNGVKQIKTLIEKTNEERKTLLSNLEEAKKKKEDALNETRESETKLKELPGVCNETMMALWEECKPCLKQTCMKFYARVCRSGSGLVGRQLEEFLNQSSPFYFWMNGDRIDSLLENDRQQTHMLDVMQDHFSRASSIIDELFQDRFFTREPQDTYHYLPFSLPHRRPHFFFPKSRIVR
chain 2: SLMPFSPYEPLNFHAMFQPFLEMIHEAQQAMDIHFHSPAFQHPPTEFIREGDDDRTVCREIRHNSTGCLRMKDQCDKCREILSVDCSTNNPSQAKLRRELDESLQVAERLTRKYNELLKSYQWKMLNTSSLLEQLNEQFNWVSRLANLTQGEDQYYLRVTTVASHTSDSDVPSGVTEVVVKLFDSDPITVTVPVEVSRKNPKFMETVAEKALQEYRKKHREE
Q: How did the “soluble TDP-43-tGFP left after 4 h at 37 °C with 43 nM CLU, against 43 nM BSA (Western blot of the supernatant, densitometry)” value turn out when B1 was run?
A: 8 fold

From article PMC5678579, “Clusterin protects neurons against intracellular proteotoxicity” (Acta Neuropathologica Communications, 2017)
